Series [1] is described as follows: Pharmacokinetic test in a mouse model after intratracheal nebulized administration. The note with it: mice, ADC-2 100 µg i.t. once; serum, BALF, lung tissue. It counts as in vivo, C57BL6/J mice. The text has this:
Mice received intratracheal (i.t.) nebulized administration. […] Following blood collection, the mice were anesthetized and immobilized. […] Table 4. Administration scheme

Series [2] deals with T1, human-derived IL-4Rα on expressing cells (human, UniProt P24394 26-825).
T1 sequence (looked up): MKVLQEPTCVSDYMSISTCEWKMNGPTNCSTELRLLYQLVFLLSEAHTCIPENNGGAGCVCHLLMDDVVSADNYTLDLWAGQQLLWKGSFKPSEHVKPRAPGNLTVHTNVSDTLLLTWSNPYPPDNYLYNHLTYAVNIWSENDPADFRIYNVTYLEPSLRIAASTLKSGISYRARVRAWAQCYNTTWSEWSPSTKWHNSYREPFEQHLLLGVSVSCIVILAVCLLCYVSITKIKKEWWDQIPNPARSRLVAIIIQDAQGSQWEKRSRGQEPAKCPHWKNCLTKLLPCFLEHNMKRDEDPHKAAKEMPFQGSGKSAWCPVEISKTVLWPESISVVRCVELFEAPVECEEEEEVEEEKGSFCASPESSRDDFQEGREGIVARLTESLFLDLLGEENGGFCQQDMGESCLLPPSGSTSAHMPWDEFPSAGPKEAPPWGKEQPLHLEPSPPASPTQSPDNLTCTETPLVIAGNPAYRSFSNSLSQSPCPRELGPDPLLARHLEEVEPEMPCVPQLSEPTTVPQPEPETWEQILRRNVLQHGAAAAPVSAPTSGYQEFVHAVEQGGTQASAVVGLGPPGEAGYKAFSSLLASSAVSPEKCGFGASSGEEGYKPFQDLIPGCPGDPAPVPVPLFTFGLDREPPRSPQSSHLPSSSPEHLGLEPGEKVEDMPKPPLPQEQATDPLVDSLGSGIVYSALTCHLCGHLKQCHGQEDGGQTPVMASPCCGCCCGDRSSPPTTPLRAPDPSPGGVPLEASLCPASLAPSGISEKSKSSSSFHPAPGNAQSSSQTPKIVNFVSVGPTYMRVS
The series is described as follows: flow cytometry on TF-1 cells expressing IL-4Rα, anti-His-FITC detection. On the technique in general: In flow cytometry, cells or beads pass a laser one at a time.

The target of series [3] is Biotin-labeled human-derived IL-4Rα protein (SinoBiological, CAT# 10402-H08H-B) (human) (UniProt P24394). Nature of the series: SPR, Biacore 8K, biotin-hIL-4Rα captured on SA chip, test protein as analyte. (In SPR one partner is held on a chip, and binding of the other changes the refractive index at the surface.)
For series [4], the target named is T1, human-derived IL-4Rα on expressing cells. The series is described as follows: cell-based or functional assay.
Series [5] shares this target. Nature of the series: flow cytometry on TF-1 cells expressing IL-4Rα, anti-hFab-FITC detection.
In series [6] the target is T2, Biotin-labeled human-derived IL-4Rα protein (SinoBiological, CAT# 10402-H08H-B) (human, UniProt P24394 26-232, biotin-labeled (site not stated)).
T2 construct: Bought reagent, captured on an SA sensor chip; also called hIL-4Rα; human-derived IL-4Rα antigen protein
T2 sequence (looked up): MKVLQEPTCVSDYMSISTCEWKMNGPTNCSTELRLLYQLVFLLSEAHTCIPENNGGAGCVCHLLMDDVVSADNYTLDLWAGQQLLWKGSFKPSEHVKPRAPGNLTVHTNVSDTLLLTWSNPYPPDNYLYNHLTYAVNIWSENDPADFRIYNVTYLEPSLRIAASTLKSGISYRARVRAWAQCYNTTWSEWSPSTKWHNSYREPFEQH
The series is described as follows: SPR, Biacore 8K, biotin-hIL-4Rα captured on SA chip, test protein as analyte.

Consider `CCCC1O[C@@H]2C[C@H]3[C@@H]4CCC5=CC(=O)C=C[C@]5(C)[C@H]4[C@@H](O)C[C@]3(C)[C@]2(C(=O)CO)O1` (some centres unmarked) [budesonide], for which the “distribution / exposure after intratracheal administration (in words)” value in series [1] is listed as “very low in all tissues”.

Turning to AZD1402-TAG (designed binder), the EC50 in series [2] was 0.0124 nM. In series [3], this molecule registered a dissociation constant (Kd) of 0.0213 nM, a koff of 0.000102 s⁻¹ and a kon of 4.77e+06 M⁻¹ s⁻¹.

B1: antibody-drug conjugate ADC-2 (Fab, V domains shown)
VH: EVQLVESGGGLVQPGGSLRLSCAASGFTFSDYGMHWVRQAPGKGLEWVAFISSGSSIIYYADIVKGRSTISRDNAKNTLYLQMNSLRAEDTAVYYCTRGNKRGFFDYWGQGTLVTVSS
VL: EIVLTQSPATLSLSPGERATLSCRASSSVPYMYWYQQKPGQAPRLLIYLTSNLASGIPARFSGSGSGTDFTLTISSLEPEDFAVYYCQQWRAYPPMLTFGGGTKVEIKR
modifications: budesonide drug-linker (compound 2, maleimide) conjugated after TCEP reduction of 25G7-Fab; conjugated residues and drug load not stated
Consider B1, for which, in series [4], the “IC50 values for blocking the IL-4 signaling pathway (nM); HEK-Blue IL-4/IL-13 STAT6-SEAP reporter cells” value was determined as 0.68 nM and the “IC50 values for blocking the IL-13 signaling pathway (nM); HEK-Blue IL-4/IL-13 STAT6-SEAP reporter cells” value is 10.6 nM.

B2: hu25G7 (antibody, human IgG4 S228P, kappa, V domains shown)
VH: B1 VH
VL: B1 VL
notes: Full-length humanized anti-IL-4R IgG4 antibody
In series [5], B2 showed an EC50 of 0.247 nM.

B3: 25G7-Fab (Fab, V domains shown)
VH: B1 VH
VL: B1 VL
notes: also called naked anti-25G7-Fab; naked antibody 25G7-Fab
Take B3: in series [6], the affinity, expressed as Kd, was 0.0439 nM; the koff is 0.000206 s⁻¹; the kon is 4.69e+06 M⁻¹ s⁻¹. In series [5], this molecule gave a concentration for a half-maximal effect (EC50) of 0.243 nM. In series [4], the “IC50 values for blocking the IL-4 signaling pathway (nM); HEK-Blue IL-4/IL-13 STAT6-SEAP reporter cells” value came out at 0.61 nM and the “IC50 values for blocking the IL-13 signaling pathway (nM); HEK-Blue IL-4/IL-13 STAT6-SEAP reporter cells” value was 14.6 nM.

Broadly, the EC50 is the concentration giving half of the maximal effect. A low value points to greater potency. The term Kd denotes the concentration at which binding is half-saturated. Low values mean higher affinity, high ones lower affinity. As a reminder, the koff is a measure of how fast the partners let go of each other. As usually defined, the kon is the second-order rate constant of association.

The record behind these values is EP4755401A1, “PHARMACEUTICAL COMPOSITION CONTAINING ANTIBODY-DRUG CONJUGATE OF GLUCOCORTICOID” (Jiangsu Hengrui Pharmaceuticals Co., Ltd., priority 2023, dated 2025).
